Measured values as given in patent US20050130232A1, “Methods of screening for compounds that modulate hormone receptor activity” (Allergan, Inc., priority 2001, published 2005).
Each block holds one substance with its values, some of them ahead of it.

Experiments:
[1] = molecular target: protein kinase A activity endogenous to HEK 293 cells (co-immunoprecipitated with tagged RXRα); assay: cell-based or functional assay
protein kinase A [2] = details: specific PKA substrate; cited from earlier work
protein kinase A [3] = assay: Km of synthetic peptide substrates for protein kinase A; assay type: biochemical
[4] = test system: protein kinase A activity associated with RXRα; assay: Protein kinase A activity in anti-Flag immunoprecipitates of PH-RXRα or RXRα transfected HEK 293 cells, synthetic peptide substrate; assay type: cell-based, human; details: PH-RXRα, ligand-treated cells, inhibitor added to kinase reaction, substrate LRRASLG
Protocol: 293 cells were transfected with PH-RXRα. Sample 1: 0.1% DMSO (10 minutes). […] Sample 3: 0.1% DMSO (30 minutes).
Sample 1: 0.1% DMSO (10 minutes). […] Sample 3: 0.1% DMSO (30 minutes). […] Sample 5: No immunoprecipitate.
Sample 1: 0.1% DMSO. […] Sample 3: 0.1% DMSO with PKA inhibitor. […] Sample 5: 0.1% DMSO.
Following immunoprecipitation with anti-Flag antibody, the synthetic PKA substrate, LRRASLG (SEQ ID NO: 59), was added to the immunoprecipitate along with γ-ATP.
HEK 293 were cultured and transfected essentially as described above. Immunoprecipitates were prepared using the anti-Flag antibody, M2, as described above. Assays for protein kinase A activity were performed as follows. Immunoprecipitated complexes were resuspended in 40 μl of Kinase Assay Buffer (30 mM Tris-HCl, pH 7.4 and 10 mM MgCl2). Kinase reactions were initiated by addition of 10 μl of 500 μM synthetic peptide LRRASLG (SEQ ID NO: 59) or […] (SEQ ID NO: 60) prepared by Upstate Biotechnology (Lake Placid, N.Y.) and addition of 50 μM [γ-^32P]ATP (10 μCi) to the immune-complexes. […]
Incorporated ^32P was separated from free label by applying the reaction mixture onto P81 phosphocellulose paper and subsequently washing the paper three times with 0.75% phosphoric acid and once with acetone. Protein kinase reaction samples were analyzed in a scintillation counter to determine the amount of ^32P-incorporation.

[5] = molecular target: T1, RXRα phosphorylation by protein kinase A (Homo sapiens, UniProt P19793); assay: Phosphorylation of immunoprecipitated RXRα by purified PKA; assay type: biochemical; details: inhibitor added to kinase reaction
T1 construct: host or cells: HEK293
T1 sequence (P19793 1-462): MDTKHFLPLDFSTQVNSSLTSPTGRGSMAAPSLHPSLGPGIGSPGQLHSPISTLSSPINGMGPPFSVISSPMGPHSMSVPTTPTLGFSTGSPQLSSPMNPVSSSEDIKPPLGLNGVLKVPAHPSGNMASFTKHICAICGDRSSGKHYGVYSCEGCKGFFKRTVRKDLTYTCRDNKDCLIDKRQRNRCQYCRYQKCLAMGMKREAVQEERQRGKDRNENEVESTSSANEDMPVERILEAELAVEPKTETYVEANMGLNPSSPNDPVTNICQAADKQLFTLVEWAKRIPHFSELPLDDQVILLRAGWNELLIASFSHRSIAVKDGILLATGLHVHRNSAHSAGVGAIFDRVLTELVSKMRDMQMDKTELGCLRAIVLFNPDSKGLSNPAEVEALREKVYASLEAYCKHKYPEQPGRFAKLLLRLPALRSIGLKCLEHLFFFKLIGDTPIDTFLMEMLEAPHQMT
Protocol: Left panel: Cells were immunoprecipitated with anti-FLAG antibody, and the immunoprecipitates analyzed by SDS-PAGE and blotting with anti-PKA antibody. Right panel: Cells were immunoprecipitated with anti-PKA antibody, and the immunoprecipitates analyzed by SDS-PAGE and blotting with anti-FLAG antibody. B. Phosphorylation of RXRα by PKA. […] PKA I and PKC I indicate inhibitors of PKA and PKC, respectively.
RXRα-containing immunoprecipitates prepared with anti-Flag antibody were incubated with purified catalytically active PKA (Upstate Biotechnology) and […]; in addition, protein kinase A inhibitor or protein kinase C inhibitor was added to some reactions as indicated. The kinase reaction products were analyzed by SDS-PAGE.

[6] = molecular target: protein kinase A activity endogenous to 3T3-L1 adipocytes; assay: cell-based or functional assay
[7] = molecular target: Flag-tagged PH-RXRα (Flag tag, pleckstrin homology domain of human insulin receptor substrate-1, human RXRα) (UniProt P35568)
[8] = test system: T2, Flag-RXRα (human retinoid X receptor α fused to the Flag epitope tag)
T2 sequence: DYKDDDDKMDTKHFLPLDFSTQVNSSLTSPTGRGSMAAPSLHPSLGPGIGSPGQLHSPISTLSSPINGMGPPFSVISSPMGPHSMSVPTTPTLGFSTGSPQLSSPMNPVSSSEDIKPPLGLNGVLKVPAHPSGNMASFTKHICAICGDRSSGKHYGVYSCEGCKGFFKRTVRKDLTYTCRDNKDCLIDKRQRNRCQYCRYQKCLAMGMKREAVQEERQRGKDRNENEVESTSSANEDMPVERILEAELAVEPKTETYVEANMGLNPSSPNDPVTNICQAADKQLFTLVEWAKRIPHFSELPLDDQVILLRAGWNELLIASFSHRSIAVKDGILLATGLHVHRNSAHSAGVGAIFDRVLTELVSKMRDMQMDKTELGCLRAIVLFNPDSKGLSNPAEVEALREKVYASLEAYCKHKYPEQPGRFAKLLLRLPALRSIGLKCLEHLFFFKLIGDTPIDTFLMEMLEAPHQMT

protein kinase A activity in anti-FLAG immunoprecipitates (32P incorporation into …), AGN194204-treated against DMSO-treated cells [1]: > 2 fold
Substance: Flag-tagged PH-RXRα (Flag tag, pleckstrin homology domain of human insulin receptor substrate-1, human RXRα) (from UniProt P35568 12-115)

fold higher Vmax than kemptide (protein kinase A [3]; relative to kemptide): about 2 fold
fold lower Km than kemptide (protein kinase A [3]; relative to kemptide (SEQ ID NO: 59)): approximately 40 fold
Substance: GRTGRRNSI [SEQ ID NO: 60, specific protein kinase A substrate]
Km (protein kinase A [2]): 0.11 µM

inhibition of RXRα phosphorylation by purified PKA [5]: not
Substance: RFARKGALRGKNV
inhibition of RXRα-associated PKA activity [4]: not

PKA activity in anti-RXRα (D20) immunoprecipitates (32P incorporation into SEQ ID NO: 59), ligand-treated against vehicle-treated cells [6]: 2 fold
Substance: endogenous RXRα of untransfected 3T3-L1 adipocytes (from UniProt P28700 1-467) (receptor)

Substance: protein kinase A activity endogenous to HEK 293 cells (co-immunoprecipitated with tagged RXRα)
protein kinase A activity in anti-Flag immunoprecipitates (32P incorporation into LRRASLG) [7]: significantly more protein kinase A activity was detected in immunoprecipitates from cells treated with AGN194024 ligand than in immunoprecipitates treated with control vehicle
protein kinase A activity in anti-Flag immunoprecipitates (32P incorporation into LRRASLG) [8]: protein kinase A activity associated with RXRα lacking a fused pleckstrin homology domain was significantly enhanced in cells treated with 10^-7 M AGN194204 as compared to control vehicle

Substance: purified catalytically active PKA (Upstate Biotechnology)
in vitro phosphorylation of immunoprecipitated RXRα by purified PKA (SDS-PAGE) [8]: RXRα was phosphorylated, and the extent of phosphorylation was increased by addition of RXRα ligand, AGN194204
